Results as given in US8357656B2, “Natriuretic peptide receptor-C agonists” (Mayo Foundation for Medical Education and Research, priority 2007, dated 2013).

Legend:
rat NPR-B = molecular target: T1, rat NPR-B (Rattus norvegicus, UniProt P16067); experiment: cGMP production in HEK293 cells stably expressing rat NPR-B; format: cell-based; settings: stimulated for 3 minutes, cGMP RIA (FIG. 2)
T1 construct: expressed in transfected cells; host or cells: HEK293 (293GCB cells)
T1 sequence (P16067 17-1047): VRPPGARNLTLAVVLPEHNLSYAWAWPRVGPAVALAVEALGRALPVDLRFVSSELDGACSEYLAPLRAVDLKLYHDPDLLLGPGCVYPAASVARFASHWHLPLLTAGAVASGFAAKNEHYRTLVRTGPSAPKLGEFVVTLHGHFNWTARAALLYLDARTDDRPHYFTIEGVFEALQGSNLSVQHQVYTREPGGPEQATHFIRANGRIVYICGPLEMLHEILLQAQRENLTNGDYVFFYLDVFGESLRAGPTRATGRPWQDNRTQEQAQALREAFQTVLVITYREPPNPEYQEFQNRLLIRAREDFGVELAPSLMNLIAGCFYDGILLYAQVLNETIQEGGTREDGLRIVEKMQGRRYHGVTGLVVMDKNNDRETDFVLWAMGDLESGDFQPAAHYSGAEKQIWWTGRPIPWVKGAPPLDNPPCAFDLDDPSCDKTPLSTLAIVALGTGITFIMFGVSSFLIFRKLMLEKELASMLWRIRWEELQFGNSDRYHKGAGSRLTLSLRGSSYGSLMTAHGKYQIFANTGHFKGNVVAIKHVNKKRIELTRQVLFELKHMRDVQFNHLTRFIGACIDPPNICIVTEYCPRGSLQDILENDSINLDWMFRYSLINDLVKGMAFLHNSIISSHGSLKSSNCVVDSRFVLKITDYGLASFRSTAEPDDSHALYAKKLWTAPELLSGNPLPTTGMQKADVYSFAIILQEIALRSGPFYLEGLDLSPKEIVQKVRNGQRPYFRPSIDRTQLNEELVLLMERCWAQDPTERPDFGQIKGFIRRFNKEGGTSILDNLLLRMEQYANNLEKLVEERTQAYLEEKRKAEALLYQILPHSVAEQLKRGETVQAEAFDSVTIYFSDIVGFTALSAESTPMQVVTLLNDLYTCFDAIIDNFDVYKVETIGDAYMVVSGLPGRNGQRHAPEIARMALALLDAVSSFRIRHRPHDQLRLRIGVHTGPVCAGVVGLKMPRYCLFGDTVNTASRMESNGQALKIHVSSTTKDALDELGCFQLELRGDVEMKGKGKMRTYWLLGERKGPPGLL
Method: (§1) HEK293 cells stably expressing rat NPR-A or NPR-B were prepared using methods similar to those described elsewhere (Fan et al., Mol. Pharmacol., 67:174-83 (2005); and Bryan and Potter, J. Biol. Chem., 277:16041-16047 (2002)). The cells were maintained in Dulbecco's modified Eagle's medium (DMEM) supplemented with 10% FBS, 100 units/mL penicillin, 100 μg/mL streptomycin, and 200 μg/mL G418. The cells were plated in 48-well plates and grown to 90% confluency. On the day of the assay, the cells were incubated in serum-free medium for 4 hours. The cells were pretreated for 10 minutes at 37° C. in DMEM containing 25 mM HEPES, pH 7.4 and 0.5 mM 1-methyl-3-isobutylxanthine by aspirating the starvation medium. After pretreatment, the medium was replaced with the same medium containing the indicated concentrations of natriuretic peptides. The cells were stimulated for 3 minutes with CNP, rat BNP, human BNP, ASBNP, or ASBNP.1. The reaction was stopped by aspiration of the medium and addition of 200 μL ice-cold 80% ethanol. Cyclic GMP concentrations were estimated from an aliquot of the ethanol extract using a Perkin Elmer cGMP RIA kit without acetylation as described elsewhere (Bryan and Potter, J. Biol. Chem., 277:16041-16047 (2002); and Abbey and Potter, J. Biol. Chem., 277:42423-30 (2002)).

rat NPR-A = molecular target: T2, rat NPR-A (Rattus norvegicus, UniProt P18910); experiment: cGMP production in HEK293 cells stably expressing rat NPR-A; format: cell-based; settings: stimulated for 3 minutes, cGMP RIA (FIG. 1)
T2 construct: expressed in transfected cells; host or cells: HEK293 (293GCA cells)
T2 sequence (P18910 29-1057): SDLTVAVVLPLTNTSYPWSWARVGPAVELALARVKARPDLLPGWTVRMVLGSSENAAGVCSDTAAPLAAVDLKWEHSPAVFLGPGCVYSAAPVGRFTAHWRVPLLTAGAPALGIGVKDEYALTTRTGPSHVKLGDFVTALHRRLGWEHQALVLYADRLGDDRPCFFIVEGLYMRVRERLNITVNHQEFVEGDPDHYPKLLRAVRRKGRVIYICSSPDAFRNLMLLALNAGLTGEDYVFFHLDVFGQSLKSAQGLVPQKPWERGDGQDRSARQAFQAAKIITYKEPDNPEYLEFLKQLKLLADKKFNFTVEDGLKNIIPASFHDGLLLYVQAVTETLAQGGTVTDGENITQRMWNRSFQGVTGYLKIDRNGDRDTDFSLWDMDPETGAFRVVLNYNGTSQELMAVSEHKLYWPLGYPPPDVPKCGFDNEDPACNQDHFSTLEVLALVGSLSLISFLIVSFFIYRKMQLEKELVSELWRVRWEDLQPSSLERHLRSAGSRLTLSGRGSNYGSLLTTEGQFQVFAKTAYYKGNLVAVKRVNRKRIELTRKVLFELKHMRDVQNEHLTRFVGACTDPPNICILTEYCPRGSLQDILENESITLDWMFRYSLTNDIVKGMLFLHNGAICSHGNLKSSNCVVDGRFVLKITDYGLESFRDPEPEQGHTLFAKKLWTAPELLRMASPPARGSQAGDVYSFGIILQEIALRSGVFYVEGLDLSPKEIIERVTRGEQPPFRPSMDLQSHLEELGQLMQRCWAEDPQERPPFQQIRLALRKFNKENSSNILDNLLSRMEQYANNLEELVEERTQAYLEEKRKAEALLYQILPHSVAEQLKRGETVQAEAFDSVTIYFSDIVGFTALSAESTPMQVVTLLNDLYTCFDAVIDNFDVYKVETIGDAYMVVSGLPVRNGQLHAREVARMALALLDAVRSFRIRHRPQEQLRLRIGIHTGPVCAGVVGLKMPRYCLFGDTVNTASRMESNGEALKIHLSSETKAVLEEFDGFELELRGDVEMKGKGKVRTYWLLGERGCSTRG
Method: as §1

human NPR-C = molecular target: T3, human NPR-C (Homo sapiens, UniProt P17342); experiment: Binding to human NPR-C; settings: FIG. 3
T3 sequence (P17342 27-541): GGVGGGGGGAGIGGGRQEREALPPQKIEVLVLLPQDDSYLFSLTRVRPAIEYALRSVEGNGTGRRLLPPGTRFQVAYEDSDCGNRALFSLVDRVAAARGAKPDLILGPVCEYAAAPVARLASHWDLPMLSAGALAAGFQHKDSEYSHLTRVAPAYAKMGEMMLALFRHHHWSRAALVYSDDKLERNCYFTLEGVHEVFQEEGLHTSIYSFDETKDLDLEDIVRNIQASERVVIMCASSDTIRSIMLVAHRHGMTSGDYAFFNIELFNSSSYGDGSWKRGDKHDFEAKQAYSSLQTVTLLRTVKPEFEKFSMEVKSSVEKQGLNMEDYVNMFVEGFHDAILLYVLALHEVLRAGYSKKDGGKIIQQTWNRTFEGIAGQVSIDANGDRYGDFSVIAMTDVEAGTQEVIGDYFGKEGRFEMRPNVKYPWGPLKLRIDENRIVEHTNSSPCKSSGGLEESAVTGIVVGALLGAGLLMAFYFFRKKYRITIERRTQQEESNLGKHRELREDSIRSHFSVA
Method: Human BNP and ASBNP.1 binding to human NPR-C was assessed using methods similar to those described elsewhere (Fan et al., Mol. Pharmacol., 67:174-83 (2005)).

Row | activation of cells expressing rat NPR-B (cGMP) (rat NPR-B) | binding to human NPR-C (human NPR-C) | Substance | activation of cells expressing rat NPR-A (cGMP) (rat NPR-A)
1 | exhibited little, if any, activity |  | ASBNP.2: ASBNP.2 polypeptide, 60 amino acid residues in length with an alanine at position 43 (SEQ ID NO:3) (SPKMVQGSGCFGRKMDRISSSSGLGCKGKHPLPPRPPSPIPVADTVRVTLGFVVSGNHTL) | 
2 | activated cells expressing rat NPR-B |  | C-type natriuretic peptide [CNP] | 
3 |  | exhibited binding to human NPR-C | ASBNP.1: ASBNP.1 polypeptide that is 42 amino acid residues in length (SEQ ID NO:1) (SPKMVQGSGCFGRKMDRISSSSGLGCKGKHPLPPRPPSPIPV) | did not exhibit any activity
4 | exhibited little, if any, activity | exhibited binding to human NPR-C | BNP: human BNP, natriuretic polypeptide of myocardial cell origin; main form is a 32 amino acid polypeptide with a ring structure | activated cells expressing rat NPR-A at concentrations in the mM range
